This is an account of results in US20250340667A1, “Cancer Treatment comprising an anti-MSLN/CD137 antibody and a chemotherapeutic” (Merck Patent GmbH, priority 2022, published 2025).

Positions count from the first letter of the chain named. Values joined by “and” are separate entries in the source; they are usually repeats but may differ in a detail not shown here. Equal values may be shown once. Read-outs that look alike come from different tables or passages of the source.

One data set concerns JC breast cancer cells. The class given is in vivo. The conditions noted are these: for tumor growth inhibition (TGI): FS122m 5 mg/kg ip Days 0, 2, 4; for complete tumor regression: number of mice with complete regression per group. On the procedure:
(§1) The efficacy of the combination of an antibody molecule that binds MSLN and CD137 and a chemotherapeutic in enhancing an anti-cancer immune response compared to monotherapy with either the antibody molecule that binds MSLN and CD137 or the chemotherapeutic was assessed by studying the average tumour volume over time and prolonged survival in mouse tumour models. These mouse tumor models are described in more detail below.
(§2) CT26 cells were obtained from ATCC and cultured in RPMI media containing 2 mM L-glutamine, 10 mM HEPES, 1 mM sodium pyruvate, 4500 mg/L glucose, 1500 mg/L sodium bicarbonate, and 10% fetal bovine serum (FBS). JC cells were obtained from ATCC and were maintained in vitro as a monolayer culture at WuXi in RPMI-1640 supplemented with 10% heat-inactivated FBS. These tumor cell lines were individually maintained in vitro as monolayer cultures and grown at 37° C. in an atmosphere of 5% CO2. The cells were routinely sub-cultured twice weekly by TrypLE treatment. The cells growing in an exponential growth phase were harvested and counted for tumor inoculation. Wild-type BALB/c female mice were purchased from Charles River Laboratories, or from Lingchang Biological Technology Co. LTD. All mice were 8-12 weeks old at the start of studies and were housed and maintained as described below, under conditions that conform to The Guide for the Care and Use of Laboratory Animals, 8th Edition. All animal experiments were performed in accordance with EMD Serono Research Institutional (protocol 17-008, 20-005) and Wuxi AppTec Animal Care and Use Committee (IACUC) guidelines.
(§3) CT26 and JC tumor models were used to investigate the antitumor effect of a combination of an antibody molecule that binds MSLN and CD137 and a chemotherapeutic compared to monotherapy with the antibody molecule that binds MSLN and CD137 or the chemotherapeutic. Mice were treated with the anti-mMSLN-mCD137-huIgG1-LALA antibody molecule FS122m in combination with either of the two chemotherapeutics cisplatin or gemcitabine. For the CT26 model, female BALB/c mice were inoculated via subcutaneous (sc) injection in the right flank with 0.3×10^6 CT26 cells in 0.1 mL of PBS. Mice were randomized to treatment groups (n=10 mice/group) when the average tumor volume reached approximately 50-100 mm^3. For the JC model, female BALB/c mice were inoculated via sc injection at the right upper flank with JC tumor cells (5×10^6) in 0.1 mL of PBS. Treatments were started on day 14 after tumor inoculation when the average tumor size reached approximately 80 mm^3. FS122m and anti-HEL hIgG1 LALA isotype control were given as 5 mg/kg on the first, third and fifth day of treatment (Days 0, 2, and 4) via intraperitoneal (ip) injection. Cisplatin was given on Day 0 at 10 mg/kg via ip injection, and gemcitabine was given on Day 0 at 120 mg/kg via ip injection.
(§4) Mortality checks were performed once daily. Animals were checked daily for any effects of tumor growth and treatments on normal behavior such as mobility, food and water consumption (by looking only), eye/hair matting and any other abnormal effect as stated in the protocol. Body weights were recorded twice weekly and any mouse with a 20% loss of initial body weight loss was humanely sacrificed. Mice were humanely euthanized if their subcutaneous tumors reached a volume of 2500 mm^3.
(§5) Body weight was measured and recorded twice weekly until an endpoint was reached. Tumor sizes were measured twice per week in three dimensions using a caliper, and the volume was expressed in mm^3 using the formula: width×length×height×0.5236.
(§6) Differences in tumor growth between treatment groups were determined using two-way analysis of variance (ANOVA) and Tukey's Multiple Comparisons Test. The significance of survival was determined using Log-rank (Mantel-Cox) test. […]

The subject of a further data set is CT26 colon cancer cells. The class given is in vivo. The conditions noted are these: for tumor growth inhibition (TGI): relative to the isotype control; for median survival: isotype control 17 days; for complete tumor regression: number of mice with complete regression per group. The protocol:
as §1, §2, §3, §4, §5, §6

In a further data set the target is T1, CD137 (Homo sapiens, UniProt Q07011).
T1 construct: Clinical studies of both utomilumab and urelumab monotherapy were however suspended; host or cells: patients (endogenous CD137)
Particulars: monotherapy clinical studies, suspended; cited from earlier work.

A further data set addresses mouse CD137 (Mus musculus, UniProt P20334). As to the kind of experiment: Binding / cross-reactivity to mouse CD137.
Another data set has as its target T2, mouse MSLN (Mus musculus, UniProt Q61468).
T2 sequence (Q61468 36-600): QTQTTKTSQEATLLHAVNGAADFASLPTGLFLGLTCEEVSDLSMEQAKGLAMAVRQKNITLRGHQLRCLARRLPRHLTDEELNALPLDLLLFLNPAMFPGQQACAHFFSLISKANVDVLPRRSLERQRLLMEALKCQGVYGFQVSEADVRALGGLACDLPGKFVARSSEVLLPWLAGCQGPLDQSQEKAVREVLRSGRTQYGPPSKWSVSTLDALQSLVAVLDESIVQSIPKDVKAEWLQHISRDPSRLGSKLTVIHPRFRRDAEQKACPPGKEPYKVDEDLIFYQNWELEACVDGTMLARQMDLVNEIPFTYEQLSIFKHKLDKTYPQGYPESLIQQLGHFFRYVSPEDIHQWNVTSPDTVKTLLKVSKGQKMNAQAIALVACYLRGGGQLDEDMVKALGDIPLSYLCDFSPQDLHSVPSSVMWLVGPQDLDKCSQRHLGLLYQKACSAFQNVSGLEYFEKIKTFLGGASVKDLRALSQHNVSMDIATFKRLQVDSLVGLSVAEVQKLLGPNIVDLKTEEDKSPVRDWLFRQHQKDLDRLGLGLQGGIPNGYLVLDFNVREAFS
The data set can be described thus: Binding / cross-reactivity to mouse MSLN.

Where [1] appears, read: cisplatin combination study, Day 22 post treatment initiation, compared with the isotype control, cisplatin 10 mg/kg ip Day 0.
[2] abbreviates: cisplatin combination study, isotype control 22 days.
Where [3] appears, read: cisplatin combination study, Day 17, FS122m 5 mg/kg ip Days 0, 2, 4, cisplatin 10 mg/kg ip Day 0.
The mark [4] stands for this setting: cisplatin combination study, FS122m 5 mg/kg ip Days 0, 2, 4, cisplatin 10 mg/kg ip Day 0.
Where [5] appears, read: gemcitabine combination study, Day 25, relative to the isotype control, gemcitabine 120 mg/kg ip Day 0.
Where [6] appears, read: gemcitabine combination study, isotype control 27 days.
Setting [7] is: gemcitabine combination study, monotherapies Day 14, combination compared on Day 18, FS122m 5 mg/kg ip Days 0, 2, 4, gemcitabine 120 mg/kg ip Day 0.

Chain of mouse CD137 (P20334 24-256): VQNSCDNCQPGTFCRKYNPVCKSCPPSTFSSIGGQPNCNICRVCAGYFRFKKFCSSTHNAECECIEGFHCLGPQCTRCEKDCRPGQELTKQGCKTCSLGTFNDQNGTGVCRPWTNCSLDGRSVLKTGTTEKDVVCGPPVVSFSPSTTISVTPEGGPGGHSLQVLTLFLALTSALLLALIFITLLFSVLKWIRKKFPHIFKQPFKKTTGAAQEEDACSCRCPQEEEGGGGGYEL
T1 sequence (Q07011 24-255): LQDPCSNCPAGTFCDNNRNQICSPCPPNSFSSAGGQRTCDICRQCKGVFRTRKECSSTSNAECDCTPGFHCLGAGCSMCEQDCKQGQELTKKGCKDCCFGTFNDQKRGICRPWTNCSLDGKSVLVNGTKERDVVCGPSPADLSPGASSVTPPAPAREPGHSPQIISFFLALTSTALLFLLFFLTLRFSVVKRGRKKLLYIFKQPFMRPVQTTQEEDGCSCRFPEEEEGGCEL

Take `N.N.[Cl][Pt][Cl]` [cisplatin]: the “tumor growth inhibition (TGI)” value is 44.9% with JC breast cancer cells (setting [1]) and 77.8% in the data set with CT26 colon cancer cells (setting [3]). Also, the values for the median survival with JC breast cancer cells (setting [2]) and in the data set with CT26 colon cancer cells (setting [4]) were 29 days and 36.5 days, respectively. In addition, the complete tumor regression result in the data set on JC breast cancer cells (cisplatin combination study) is reported as “no complete tumor regression in 10 mice”; in the data set on JC breast cancer cells (gemcitabine combination study), “no complete tumor regression in 10 mice”; in the data set with CT26 colon cancer cells (cisplatin combination study), “no complete tumor regression in 10 mice”; in the data set with CT26 colon cancer cells (gemcitabine combination study), “no complete tumor regression in 9 mice”.

Consider “urelumab: 1st generation CD137 agonist antibody”, for which the clinical toxicity result with CD137 is “hepatotoxicity”.

For `Nc1ccn([C@@H]2O[C@H](CO)[C@@H](O)C2(F)F)c(=O)n1` [gemcitabine], the results for the “tumor growth inhibition (TGI)” value with JC breast cancer cells (setting [5]) and with CT26 colon cancer cells (setting [7]) were 47.8% and 58.2%, respectively. Besides, the median survival was found to be 36 days in the data set on JC breast cancer cells (setting [6]) and 22 days with CT26 colon cancer cells (gemcitabine combination study). In addition, the complete tumor regression entry is “no complete tumor regression in 10 mice” in the data set on JC breast cancer cells (gemcitabine combination study) and “no complete tumor regression in any of 9 mice” in the data set with CT26 colon cancer cells (gemcitabine combination study).

B1: FS122m: mouse surrogate mAb2 of M9657 binding mouse MSLN and murine CD137, human IgG1 LALA; SEQ ID NOs 84 and 85 (antibody)
heavy: EVQLLESGGGLVQPGGSLRLSCAASGFTFSTYFMVWVRQAPGKGLEWVSMISPKSSNTYYADSVKGRFTISRDNSKNTLYLQMNSLRAEDTAVYYCARYHISPRFDYWGQGTLVTVSSASTKGPSVFPLAPSSKSTSGGTAALGCLVKDYFPEPVTVSWNSGALTSGVHTFPAVLQSSGLYSLSSVVTVPSSSLGTQTYICNVNHKPSNTKVDKKVEPKSCDKTHTCPPCPAPEAAGGPSVFLFPPKPKDTLMISRTPEVTCVVVDVSHEDPEVKFNWYVDGVEVHNAKTKPREEQYNSTYRVVSVLTVLHQDWLNGKEYKCKVSNKALPAPIEKTISKAKGQPREPQVYTLPPSRDEPYWSYVSLTCLVKGFYPSDIAVEWESNGQPENNYKTTPPVLDSDGSFFLYSKLTVMNYRWELGNVFSCSVMHEALHNHYTQKSLSLSPGK
light: EIVLTQSPGTLSLSPGERATLSCRASQSVSSSYLAWYQQKPGQAPRLLIYGASSRATGIPDRFSGSGSGTDFTLTISRLEPEDFAVYYCQQPFPFSFTFGQGTKVEIKRTVAAPSVFIFPPSDEQLKSGTASVVCLLNNFYPREAKVQWKVDNALQSGNSQESVTEQDSKDSTYSLSSTLTLSKADYEKHKVYACEVTHQGLSSPVTKSFNRGEC
modifications: FS122m (surrogate anti-mMSLN mCD137 Fcab G1-AA): Heavy chain AA (with LALA); Light chain AA
In the case of B1, in the data set with mouse CD137 (compared with binding affinity of M9657 for human CD137), the “binding affinity for mouse CD137” value is “similar”. Also, the “binding affinity for mouse MSLN” value with mouse MSLN (compared with binding affinity of M9657 for human MSLN) is on record as “similar”. In addition, the “tumor growth inhibition (TGI)” value in the data set with JC breast cancer cells (setting [1]) is 60.1%; in the data set on JC breast cancer cells (setting [5]) it was 45.8%; in the data set on CT26 colon cancer cells (setting [3]), 61.3%; with CT26 colon cancer cells (setting [7]) it was 61.4%. For the same molecule, the median survival in the data set on JC breast cancer cells (setting [2]) was 33 days; in the data set on JC breast cancer cells (setting [6]), 34 days; with CT26 colon cancer cells (setting [4]) it was 24 days; in the data set with CT26 colon cancer cells (gemcitabine combination study) it was 35 days. In addition, the complete tumor regression with JC breast cancer cells (cisplatin combination study) is 2 of 10; in the data set with JC breast cancer cells (gemcitabine combination study), 1 of 10 and 1 out of 10; in the data set on CT26 colon cancer cells (cisplatin combination study), 2 of 10 and 2 out of 10; in the data set with CT26 colon cancer cells (gemcitabine combination study) it was 3 of 9.

B2: M9657: tetravalent bispecific mAb2, Fab binds MSLN, CH3 Fcab binds CD137, human IgG1-LALA; heavy/light chain SEQ ID NOs 2 and 10 (antibody)
heavy: EVQLLESGGGLVQPGGSLRLSCAASGFTFTHTYMSWVRQAPGKGLEWVSAISPTYSTTNYADSVKGRFTISRDNNKNTLYLQMNSLRAEDTAVYYCARYNAYHAALDYWGQGTLVTVSSASTKGPSVFPLAPSSKSTSGGTAALGCLVKDYFPEPVTVSWNSGALTSGVHTFPAVLQSSGLYSLSSVVTVPSSSLGTQTYICNVNHKPSNTKVDKKVEPKSCDKTHTCPPCPAPEAAGGPSVFLFPPKPKDTLMISRTPEVTCVVVDVSHEDPEVKFNWYVDGVEVHNAKTKPREEQYNSTYRVVSVLTVLHQDWLNGKEYKCKVSNKALPAPIEKTISKAKGQPREPQVYTLPPSRDELPYIIPPYNQVSLTCLVKGFYPSDIAVEWESNGQPENNYKTTPPVLDSDGSFFLYSKLTVGADRWLEGNVFSCSVMHEALHNHYTQKSLSLSPG
light: B1 light with P92T, F93V, F95Y, S96P, F97Y
modifications: Heavy chain AA (with LALA); Light chain AA
For the molecule B2, the “cross-reactivity with mouse CD137” value in the data set with mouse CD137 is recorded as “lack of cross-reactivity”. In addition, the “cross-reactivity with mouse MSLN” value with mouse MSLN is listed as “lack of cross-reactivity”.
